The test system of assay [1] is Actinobacillus haemophilus ATCC #43717. The assay is described as follows: LF/GMP assay, viable plate count (pour plate) of broth culture. It is filed as cell-based. The note with it: 35° C.; for Colony Counts: viable plate count. The procedure:
(§1) Bacterial strains used in this study were Pseudomonas aeruginosa ATCC #27853, Streptococcus mutans ATCC #33535, Streptococcus pyogenes ATCC #19615, and Actinobacillus haemophilus ATCC #43717 and an oral swab from a healthy adult. Bacteria were grown on blood/BHT media (Brain Heart Infusion Agar with protease peptone, sodium chloride, glucose, di-sodium phosphate, and agar, Oxoid, Hampshire England, Sheep's Blood) in the presence of 5% CO2 at 35° C. […] One ml of the appropriate bacterial dilution was taken using a sterile pipette and introduced into 8 ml of sterilized BHI broth. […] By pipette, 9 ml of broth was placed into medium test tubes as means of a control and 8 ml test tubes were prepared for the concentration tests). […] This solution was filtered through a 0.45 μm filter. […] To study the kinetics of LF/GMP binding, each strain of bacteria was taken separately with a sterile pipette and placed into an 8 ml BHI broth test tube, vortexed, and incubated in the presence of 1 ml of LF or GMP for 18-24 hours at 35° C. with 5% CO2. In the combination procedure, 0.5 ml of both LF and […] were taken as 1 ml inoculations. One mL of each bacterial strain, plus one mL of sialic acid solution (1,000 ppm) were inoculated into test tubes filled with 8 mL of BHI broth. Each test tube was vortexed, incubated for 24 hours at 35° C. with 5% CO2, and then pour plated in BHI agar to obtain a plate count. This technique was used to determine the density of living (viable) cells in inoculated broth cultures. It involves plating a bacterial sample and counting the resulting colonies after incubation. A serial dilution of the original broth was taken prior to plating. The serial dilution is necessary to reduce the density of organisms in order to create countable plates. Only plates containing between 25 and 250 colonies are considered countable. Cell densities are traditionally recorded as CFU (colony forming unit)/ml. […] Formula: [formula] The assays required the use of a pour plate technique. The pour plate technique adds a step to the conventional serial dilution. The 1 ml of dilution is added to a warm emulsion of dilute nutrient (BHI) agar to produce an agar overlay in the petri plates. After incubation, the bacterial growth covers the entire plate but individual cellular movement has been restricted by the soft agar overlay. Each colony formed is assumed to have originated from a single CFU. The plates were gently mixed, inverted, and incubated for 18-24 hour at 35° C. Using a control (one broth tube inoculated with a bacterial strain, but no LF), the effectiveness of LF was examined. Each test tube containing a specified amount of LF (50, 100, 250, 500, 1,000 ppm and 3000 ppm) was diluted and plates were poured. […] A. haemophilus, S. mutans, S. pyrogenes and an oral culture were tested at 35° C. Pseudomonas aeruginosa was tested at both room temperature and 35° C. with 5% CO2. This was done because P. aeruginosa is not strictly an oral pathogen. It is commonly found in the environment in various conditions. It can be found in the environment and oral intake can cause inflammation in the oral cavity. Most normal oral bacteria are only found in the mouth and are not taken in from outside factors. Therefore, P. aeruginosa is a threat in both temperature settings. […] (see Table 2).

The test system of assay [2] is Streptococcus mutans ATCC #33535. The description is as above. The class given is cell-based. To be noted: 35° C.; for Colony Counts: viable plate count. The procedure: as §1
[3] abbreviates: Lactoferrin/GMP 250/0 ppm (LF alone).
The mark [4] stands for this setting: Lactoferrin/GMP 3,000/0 ppm (LF alone).
Where [5] appears, read: Lactoferrin/GMP 3,000/0 ppm (LF alone), listed as Lactoferrin.

B1: LF: Bovine lactoferrin, iron-binding glycoprotein purified from milk, provided by DMV International (protein, UniProt P24627 20-708, looked up)
Lactotransferrin: APRKNVRWCTISQPEWFKCRRWQWRMKKLGAPSITCVRRAFALECIRAIAEKKADAVTLDGGMVFEAGRDPYKLRPVAAEIYGTKESPQTHYYAVAVVKKGSNFQLDQLQGRKSCHTGLGRSAGWIIPMGILRPYLSWTESLEPLQGAVAKFFSASCVPCIDRQAYPNLCQLCKGEGENQCACSSREPYFGYSGAFKCLQDGAGDVAFVKETTVFENLPEKADRDQYELLCLNNSRAPVDAFKECHLAQVPSHAVVARSVDGKEDLIWKLLSKAQEKFGKNKSRSFQLFGSPPGQRDLLFKDSALGFLRIPSKVDSALYLGSRYLTTLKNLRETAEEVKARYTRVVWCAVGPEEQKKCQQWSQQSGQNVTCATASTTDDCIVLVLKGEADALNLDGGYIYTAGKCGLVPVLAENRKSSKHSSLDCVLRPTEGYLAVAVVKKANEGLTWNSLKDKKSCHTAVDRTAGWNIPMGLIVNQTGSCAFDEFFSQSCAPGADPKSRLCALCAGDDQGLDKCVPNSKEKYYGYTGAFRCLAEDVGDVAFVKNDTVWENTNGESTADWAKNLNREDFRLLCLDGTRKPVTEAQSCHLAVAPNHAVVSRSDRAAHVKQVLLHQQALFGKNGKNCPDKFCLFKSETKNLLFNDNTECLAKLGGRPTYEEYLGTEYVTAIANLKKCSTSPLLEACAFLTR
As for B1, the “Colony Counts” value in assay [1] (50 ppm, 24 h) is on record as 2.6 × 10^8; in assay [1] (100 ppm, 24 h) it was 2.5 × 10^8; in assay [1] (250 ppm, 24 h) it was 2.5 × 10^8; in assay [1] (500 ppm, 24 h), 2.3 × 10^8; in assay [1] (1,000 ppm, 24 h), 2.4 × 10^8; in assay [1] (3,000 ppm, 24 h), 5.3 × 10^7. For the same molecule, the “Colony Counts” value in assay [2] (50 ppm, 24 h) was 1.9 × 10^8; in assay [2] (100 ppm, 24 h), 1.9 × 10^8; in assay [2] (250 ppm, 24 h), 1.7 × 10^8; in assay [2] (500 ppm, 24 h), 1.4 × 10^8; in assay [2] (1,000 ppm, 24 h), 1.2 × 10^8; in assay [2] (3,000 ppm, 24 h), 5.5 × 10^7. Further, the “Total Log Reduction” value in assay [1] (setting [3]) was 0 log; in assay [1] (setting [4]), “one log”; in assay [1] (setting [5]), 1 log; in assay [2] (setting [3]), 0 log; in assay [2] (setting [4]) it was “one log”; in assay [2] (setting [5]), 1 log. Besides, the “# Log Reductions” value in assay [1] (at the MIBC, vs control) is recorded as 1 log; in assay [2] (at the MIBC, vs control), 1 log. Moreover, the MIBC was 3,000 ppm in assay [1] (single agent, 24 h, 5% CO2) and 3,000 ppm in assay [2] (single agent, 24 h, 5% CO2).

(Values after US6890900B2, “Methods for treating or preventing diseases of the oral cavity” (Campina B.V., priority 2001, dated 2005).)
